Test results: the supplement of paper PMC9170038

System: K4 kissing-loop RNA reporter
Test: apparent KD of K4 kissing-loop reporter; higher = weaker reporter binding
Conditions: Eterna round: R107
Method: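 RNA-MaP round R107: designed RNA switches with theophylline, tryptophan, arginine or FMN aptamers are transcribed on-chip within common flanks. They are titrated with a labelled K4 kissing-loop RNA reporter in RNA-MaP buffer (100 mM Tris pH 7.5, 80 mM KCl, 4 mM MgCl2), without ligand or with the indicated ligand. Median apparent KD per design.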

[1] = input ligand: theophylline 20 uM
[2] = input ligand: tryptophan 2.4 mM
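Note: bound reporter read as fluorescence of individual clusters on recovered sequencing chips by microscopy, with normalized cluster intensities fitted with a binding model.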

Sequence	apparent KD of K4 kissing-loop reporter (input ligand: FMN 200 uM)	apparent KD of K4 kissing-loop reporter (input ligand: arginine 13.2 mM)	apparent KD of K4 kissing-loop reporter (input ligand: none)	apparent KD of K4 kissing-loop reporter [1]	apparent KD of K4 kissing-loop reporter [2]
GAAUAAUAACAUGAGUGAUGUUCAUGUAAACGAGGACCGGUACGGCCGCCACUCGAACCUCAUGUAAGCCGUACCAAUAACAAUA [KL-XTryp-A4 #analogue]	115 nM	120 nM	112 nM	116 nM	120 nM
GACGGGUUCCUGCUCAAUCCGUCGCAUGAUCGAGGACCGGUACGGCCGCCACUCGAGGCCAUGCCGUACGAGUGAUGUUCGUGCG [Xeon]	438 nM	367 nM	403 nM	380 nM	200 nM
GAGGCCAGACGGAGUGAUGUUUCGUAUGAUACCAGCAGCGAAAGCUGCCCUUGGCAGCAUGCCACGGCCUCGGCGGGAAACCGCC	372 nM	319 nM	397 nM	446 nM	384 nM
GAGGUGGAGUGAUGUUCCACACUCGCUAGUAAGGAUAUGGCUGCUUCCAGAAGGUACCUAGAUUCAGUGUGCAUCAGUAACGUGC [theeternabot_exclusion_KL_FMN_A_4]	95.2 nM	96.3 nM	106 nM	105 nM	96.3 nM
GAUAUAGUGAUGUUAUAUACUGAUAGACAACGAGGACCGGUACGGCCGCCACUCGAGAGGGUGAAAAUAAUGAUAAAAUAAUAAU [ExyTryA#1]	343 nM	310 nM	359 nM	298 nM	265 nM
GAUAUAGUGAUGUUAUAUACUGAUAGACAACGAGGACCGGUACGGCCGCCACUCGAGAGGGUGAAAAUGAUGAUAAAAUAAUGAU [#02 K4 Tryptophan A Exclusion]	329 nM	318 nM	333 nM	306 nM	278 nM
GAUCUGAACGAAAGUUCGGAUCAUUCCGAUACCAGUAUGGAUUCAUACCCUUGGCAGCGGGAUUCUGCUAUGGAGUGAUGUUCCA [Theophylline A K4 15]	422 nM	332 nM	475 nM	400 nM	362 nM
GAUGAAGAGUCGUUAGUUAGGGCUUUCGAUACCAGCGCCCGUCCACGCCCUUGGCAGCGAUUGAAAGAGUGAUGUUCUGUCAGGA [theeternabot_exclusion_KL_Theo_A_31]	578 nM	309 nM	546 nM	741 nM	289 nM
GAUUCUGUUCGAAAGAACGGAAUCACGGAAGGAGCGAGAGAAAUCUCAGGUAGGUCGCCGAAUUUUAGAUAGUGAUGUUAUCAUU [Arginine A K4 1]	820 nM	724 nM	1080 nM	856 nM	711 nM
GAUUUAGAGGCGGCCGCCACUAGUGAUGUUAGUGAUGUUUGAUACUGUAUAUAUCGGCGUGUAGAUAGGACCGGGCCUGAUGGAG [drrdmullin]	259 nM	176 nM	266 nM	210 nM	196 nM
GCAAUCCCGGCGGCCGCCACUUUCAUACCAGUGAUGUUGAGUAGGAAAUGGAAUAUGCGCUGAAUAAGGACCGGGCCUAAGGAGA [theeternabot_exclusion_KL_Trp_B_47]	270 nM	216 nM	251 nM	255 nM	210 nM
GCAGUGAUGUUGCGAAUCGGCCAUGAUGCAGAGGAUAUCGUGCCUUCGAGAAGGUUGUAUAGAGGAUACGAUACUAUUAAUGACG [Same State FMN A GF 6]	395 nM	356 nM	714 nM	413 nM	329 nM
GCAUCCAUGGCAGGAUAUAGGUUCGUGGAGUGAUGUUCCAUAGCCCGAGUGAUGUUCGUUAUCCACCUAGAAGGGCCAUGGAUGC [whbob_Ex_FMNB__2th212]	270 nM	205 nM	246 nM	211 nM	210 nM
GCAUCCAUGGCAGGAUAUAGGUUCGUGGAGUGAUGUUCCAUAGCCCGAGUGAUGUUCGUUAUCCGCCUAGAAGGGCCAUGGAUGC [whbob_Ex_FMNB__2th213]	247 nM	192 nM	227 nM	219 nM	203 nM
GCAUCGAUGGCAGGAUAUAGGUUCGUGGAGUGAUGUUCCAUAGCCCGAGUGAUGUUCGUUAUCCGCCUAGAAGGGCCGUGGAUGC [whbob_Ex_FMNB__2th215]	263 nM	210 nM	297 nM	221 nM	244 nM
GCCAGAUAGACGGCCGCCACUUAUAAGUUUCAGUGAUGUUGGAACGGCAAAUGCCGAACACAAUAGAGGACCGGGUCAACUGGCG [Same State Tryptophan B GF 1]	920 nM	591 nM	835 nM	901 nM	639 nM
GCCGCAAGGCUAGCAGCAAUAGGCGCUCGCUAGGAUAUCUGGAAACAGAGAAGGAGCUGGAGUGAUGUUUUACCUCCUUGUUAUU	1000 nM	735 nM	950 nM	814 nM	657 nM
GCCGUACGCAUGGAUACCAGAUGGCACUAUUUUCUCCCAGAGUGAUGUUCUGGCCUGCCUAUCCCUUGGCAGCCAUGCGUACGGC	806 nM	616 nM	800 nM	488 nM	671 nM
GCCGUACGCAUGGAUACCAGCAGAACUGCCCUCCCAGUGAUGUUGGGAGGAUCUUUCCUUUGCCCUUGGCAGCCAUGCGUACGGC	126 nM	112 nM	124 nM	84.8 nM	117 nM
GCCGUACGCAUGGAUACCAGUCUAAGAGUGAUGUUCUUACCGAUUGCGCCUGGAUCAUUAGACCCUUGGCAGCCAUGCGUACGGC	155 nM	117 nM	126 nM	148 nM	146 nM
GCCGUACGCAUGGAUACCAGUCUUAGAGUGAUGUUCUAAUCGAUUGCGCCUGGAUCAAUGGACCCUUGGCAGCCAUGCGUACGGC	129 nM	97.3 nM	120 nM	125 nM	112 nM
GCCGUACGCAUGGAUACCAGUUGCGAAGUGAUGUUUCGGGCGAUCAAAGGAUCGCCCUACAACCCUUGGCAGCCAUGCGUACGGC	158 nM	67.3 nM	122 nM	204 nM	120 nM

Sequence	apparent KD of K4 kissing-loop reporter (input ligand: FMN 200 uM)	apparent KD of K4 kissing-loop reporter (input ligand: arginine 13.2 mM)	apparent KD of K4 kissing-loop reporter (input ligand: none)	apparent KD of K4 kissing-loop reporter [1]	apparent KD of K4 kissing-loop reporter [2]
GCCGUAGAUGGAAGGAGCGUGGUGGACUCGUGAAGUGAUGUUUCAAGUCGAUAUGCCCAACCACAGGUAGGUCGCCAUCUACGGC	206 nM	161 nM	169 nM	198 nM	174 nM
GCCGUAGAUUGAAGGAGCGGGAGAGGGAAAGUGAUGUUUUCUCUAUGACGGCGUCCUCGAUCCCAGGUAGGUCGCAAUCUACGGC	137 nM	80.7 nM	99.7 nM	80.3 nM	105 nM
GCCGUAGAUUGAAGGAGCGUUCUUACUGAGUACGGCAACCGGAAGUGAUGUUUCCAGGUGGAACAGGUAGGUCGCAAUCUACGGC	102 nM	87.4 nM	105 nM	88 nM	93.9 nM
GCGCGUCAUGUCAGCGGUGACACUGUCGAUACCAGUGCCGGAAGGCGCCCUUGGCAGCGACGUGCUGGAGUGAUGUUCCAGCGUU [#2 Exclusion - Theophylline A Attempt #28 (HarryS)]	136 nM	128 nM	151 nM	131 nM	130 nM
GCGCGUGUUAAAGGAUAUAGCAGGUGAUACAAGAAAGUGAGUGAUGUUUAUGUAGAUGAUGAUAUGUUAGAAGGUUAACACGCGC [abcdefghijklmnopqr]	784 nM	635 nM	966 nM	688 nM	629 nM
GCGGCGGGCCAAGGAUAUAUUUUGGAGUGAUGUUGUUCAUUUAUUUGAGCUAGUGAUGUUGGUCGAAUAGAAGGUGGCCCGCCGC [whbob_Ex_FMNB__2th219]	65.8 nM	29.4 nM	56.9 nM	35.9 nM	46 nM
GCGUAGAUUAGCAGUGAUGUUGCUACGGAAGGAGCGCGUGAAAACGCAGGUAGGUCGCCGACAAAAUUAAUUUUAAUGUCUGCGC [KL-SSArg-A6]	469 nM	448 nM	596 nM	423 nM	365 nM
GCUAGUUUGGAAGGAUAUUCGUGCGAUCAAGUCAAACUUUACUGAGGGCGUUUUGGAGUGAUGUUCGAAGAAGGUCCCUUACUUA [theeternabot_exclusion_KL_FMN_B_28]	1400 nM	816 nM	999 nM	664 nM	758 nM
GCUCAGGAGUGAUGUUCCUAGUGAUGUUAACGAGGACCGGUACGGCCGCCACUCGAUACGGCCGGACCGUAGGAUAAACUAGAGC [Same State - Tryptophan A (Freestyle 10)]	292 nM	238 nM	261 nM	351 nM	340 nM
GGAAGAAGUGGUGUUGAUUAAGAAGCGGAAGGAGCGCCGAAGAAGGCAGGUAGGUCGCCGAAAUAUAGUGAUGUUAUAUAAAAGG [ExArg.A]	168 nM	170 nM	229 nM	168 nM	199 nM
GGAAGACACCUGAGUGAUGUUCGGGUGUGCCGAGGACCGGUACGGCCGCCACUCGGGUGGUACAGUUACUGAUUGGACCGCUAUC [Arbirace]	127 nM	203 nM	275 nM	603 nM	204 nM
GGAGAGAACUGAAGGAGCGGCAAGAGAGAAGGAAAUAUAGUGAUGUUAUAUAAGAGAGAGAGCCAGGUAGGUCGCAGAGGGAGGA [ExArgB.A]	201 nM	153 nM	147 nM	164 nM	149 nM
GGAGGCUAUGCAGGAUAUAGUCGGUUGAGUGAUGUUUAACGACUAAACCUUCUAAGUCACAGCCCGCUAGAAGGGCAUAGCCUCC	427 nM	225 nM	258 nM	229 nM	266 nM
GGAGGGAUCUCGGCCGCCACUCGUAAGAAAUGGGCCUCAGGGAUAUAGUGAUGUUAUGUAAAGAAGAGGACCGGGAGAAAGAAGG [ExTryptoB.Dd]	222 nM	208 nM	247 nM	306 nM	209 nM
GGAGUUACCUGGGAUACCAGUCGGAGGCCCAGAGCUCGGAGUGAUGUUCUGGGAUGUUUCGGCCCUUGGCAGCUCUGGGUCUCCG [#2 Exclusion - Theophylline B Attempt #4 (HarryS)]	822 nM	452 nM	583 nM	648 nM	571 nM
GGAGUUACCUGGGAUACCAGUCGGAGUCCUAGAGCUCGGAGUGAUGUUCUGGGAUGUUUCGGCCCUUGGCAGCUCUGGGACUCCC [#2 Exclusion - Theophylline B Attempt #11 (HarryS)]	615 nM	470 nM	949 nM	921 nM	630 nM
GGAGUUACCUGGGAUACCAGUCGGAGUCUCAGAGCUCGGAGUGAUGUUCUGGGAUGUUUCGGCCCUUGGCAGCUCUGGGACUCCU [#2 Exclusion - Theophylline B Attempt #17 (HarryS)]	698 nM	569 nM	747 nM	788 nM	512 nM
GGAUAGGACACAGGAUAUGGGCUAGGCAAGAAUAACUUGUCUAGCAAAUCCAUGAGGAGUGAUGUUCCAGAAGGGUGUCCUAUCG [FmnBX 1 C11+G75]	431 nM	111 nM	94.9 nM	97.3 nM	86.7 nM
GGAUAGGACAGAGGAUAUCUCUGAGGCAAGAAAACUUGUCUCUAAAGAGAUGACUCAGUGAUGUUGAGAGAAGGCUGUCCUAUCG [FmnBX 9 - #SwitchBubble #StaticStem]	211 nM	143 nM	152 nM	155 nM	148 nM
GGAUAGGAUAGAGGAUAUGGAAAACACAGAAAUAACUUGUUGUGUUUAUCCAUAGGGAGUGAUGUUCCAGAAGGCUGUCCUAUCG [MatMod 20 - Jieux - Exclusion - FMN B]	284 nM	200 nM	192 nM	219 nM	151 nM
GGAUAGGAUAGAGGAUAUGGAUUAGGCAAGAAUAACUUGUCUUGUAAAUCCAUGAGGAGUGAUGUUCCAGAAGGCUGUCCUAUCG [MatMod 6 - Jieux - Exclusion - FMN B]	233 nM	113 nM	116 nM	117 nM	94.3 nM
GGAUAGGAUAGAGGAUAUGGGCUAGGCAAGAAUAACUUGUCUAGCAAAUCCAUGAGGAGUGAUGUUCCAGAAGGCUGUCCUAUCG [FmnBX 1 U9]	901 nM	169 nM	152 nM	211 nM	128 nM
